In US20220153839A1:

Target: ROR1 (reagent by which anti-ROR1 recognition of CAR-T cells was read; form not stated)
Assay: FACS of EGFR+ transduced T cells

ROR1 (reagent by which anti-ROR1 recognition of CAR-T cells was read; form not stated), sequence (Q01973 24-403): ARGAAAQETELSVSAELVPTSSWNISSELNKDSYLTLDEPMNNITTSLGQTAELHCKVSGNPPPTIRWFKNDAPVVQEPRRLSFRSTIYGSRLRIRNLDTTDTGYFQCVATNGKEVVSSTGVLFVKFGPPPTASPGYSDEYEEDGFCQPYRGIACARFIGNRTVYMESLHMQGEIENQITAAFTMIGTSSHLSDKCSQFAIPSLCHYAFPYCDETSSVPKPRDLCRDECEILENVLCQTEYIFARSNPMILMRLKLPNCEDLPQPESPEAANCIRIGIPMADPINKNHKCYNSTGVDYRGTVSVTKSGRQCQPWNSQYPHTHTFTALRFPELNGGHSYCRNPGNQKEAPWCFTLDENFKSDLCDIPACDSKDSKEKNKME

B1: XBR1-402 chimeric antigen receptor with short spacer, on CD8+ T cells (protein, part only; not given: scFv linker, spacer, signaling parts, not shown: large carriers)
scFv, part: QEQQKESGGGLFKPTDTLTLTCTASGFDISSYYMSWVRQAPGNGLEWIGAIGISGNAYYASWAKSRSTITRNTNLNTVTLKMTSLTAADTATYFCARDHPTYGMDLWGPGTLVTVSSSYELTQLPSVSVSLGQTARITCEGNNIGSKAVHWYQQKPGLAPGLLIYDDDERPSGVPDRFSGSNSGDTATLTISGAQAGDEADYYCQVWDSSAYVFGGGTQLTVTG
- percent of CAR-T cells with anti-ROR1 recognition: > 90%

B2: XBR1-402 chimeric antigen receptor with long spacer, on CD8+ T cells (protein, part only; not given: scFv linker, spacer, signaling parts, not shown: large carriers)
scFv, part: QEQQKESGGGLFKPTDTLTLTCTASGFDISSYYMSWVRQAPGNGLEWIGAIGISGNAYYASWAKSRSTITRNTNLNTVTLKMTSLTAADTATYFCARDHPTYGMDLWGPGTLVTVSSSYELTQLPSVSVSLGQTARITCEGNNIGSKAVHWYQQKPGLAPGLLIYDDDERPSGVPDRFSGSNSGDTATLTISGAQAGDEADYYCQVWDSSAYVFGGGTQLTVTG
- percent of CAR-T cells with anti-ROR1 recognition: > 90%
